Laboratory results published in patent EP0132021B1, “TGF polypeptides, antigenic oligopeptides derived therefrom and antibodies produced therefrom” (Todaro, George Joseph, priority 1983, dated 1985).

Assays:
[1] = target: T1, EGF receptor sites on A431 human carcinoma cells (Homo sapiens, UniProt P00533); assay: 125I-EGF radioreceptor (binding competition) assay on formalin-fixed A431 cells
T1 construct: Human epidermoid A431 cells have in excess of 10⁶ EGF receptors per cell; endogenous in cells; host or cells: A431 human epidermoid carcinoma cells (formalin-fixed in A1)
Protocol: Purified EGF was labeled with Na¹²⁵I by a modification of the chloramine-T method as described in DeLarco et al. (1978) Proc. Natl. Acad. Sci. USA 75, pp. 4001-4005. The ¹²⁵I-EGF binding assay was performed on subconfluent monolayers of formalin-fixed A431 human carcinoma cells as previously described (in DeLarco et al. (1980) J. of Biol. Chem. 255, pp. 3685-3690). The fixed cells were washed twice with 0.5 ml of binding buffer (Dulbecco's modified Eagle's medium containing 1 mg/ml of bovine serum albumin and 50 mM 2-[bis(2-hydroxyethyl)amino]ethanesulfonic acid, pH 6.8). Competitions were initiated by the addition of 0.2 ml of binding buffer containing 0.4 ng of ¹²⁵I-EGF with or without potential inhibitor. After incubation for 1 h at 22°C, the specifically bound ¹²⁵I-EGF was determined. The TGF content was expressed by its degree of inhibition of the binding of ¹²⁵I-EGF to the EGF receptor. One EGF-competing activity unit is defined as the amount of protein that inhibits the binding of ¹²⁵I-EGF to its receptor by 50%.
TGF was quantitated in a radioreceptor assay based on receptor crossreactivity with mouse submaxillary gland epidermal growth factor (mEGF). […]

[2] = target: T2, tyrosine-specific protein kinase (Homo sapiens, UniProt P00533); assay: Stimulation of tyrosine-specific protein kinase (phosphorylation of synthetic angiotensinyl peptide substrate); type: biochemical
T2 construct: endogenous in cells; host or cells: human tumor cell membranes (said in the general description, not in the assay sentence)
Source text: A consequence of TGF or EGF binding to the EGF membrane receptors is the stimulation of phosphorylation of tyrosine residues of synthetic peptides or endogenous substrates (Pike et al. (1982) J. Biol. Chem. 257, pp. 14628-14631).

NRK cells = assay: Soft agar transforming assay with fetal bovine serum and TGF-beta; type: cell-based, rat; conditions: in the absence of TGF-beta
Source text: Synthetic rTGF prepared in accordance with this Example was compared with natural rTGF in three assays for biological properties of the putative transforming growth factor.

[3] = after oxidation and regeneration, prior to purification

regenerated, crude rTGF-I: crude synthetic rTGF oxidized and regenerated by the mixed disulfide method, prior to any purification
EGF-radioreceptor activity when compared to the natural rTGF-I [1, 3]: 40-50% | tyrosine-specific protein kinase activity when compared to the natural rTGF-I [2, 3]: 40-50%

synthetic rTGF: rat TGF made by stepwise solid-phase chemical synthesis, oxidized and purified to homogeneity
IC50 ([1]; A431 human carcinoma cells, read-out: concentration required for 50% inhibition of 125I-EGF binding): 4.1 nM | EC50 ([2]; read-out: half maximal activity, stimulation of phosphorylation of the synthetic angiotensinyl peptide substrate): 0.3 nM | transformation of NRK cells in culture (NRK cells): does not produce such an effect
